The text below walks through data of publication PMC10397247.

In assay [1] the target is T1, Core_IIII-es_KKEE.
T1 chain: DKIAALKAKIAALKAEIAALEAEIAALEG
Kind of assay: two-hybrid library CCmax.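 Also: natural log of median RNA to DNA barcode read ratio; higher means stronger binding.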 The conditions noted are these: mean of both orientations.

For assay [2], the target named is T2, P10.
T2 chain: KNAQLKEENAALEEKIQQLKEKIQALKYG
Kind of assay: two-hybrid library CC1.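 Also: natural log of median RNA to DNA barcode read ratio; higher means stronger binding.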

The target in assay [3] is T3, P11.
T3 chain: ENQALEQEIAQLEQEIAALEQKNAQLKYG
Description: two-hybrid library CC1.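 Also: natural log of median RNA to DNA barcode read ratio; higher means stronger binding.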 The note with it: mean of both orientations.

For assay [4], the target named is T4, P12.
T4 chain: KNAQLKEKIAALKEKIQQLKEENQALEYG
Kind of assay: two-hybrid library CC1.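 Also: natural log of median RNA to DNA barcode read ratio; higher means stronger binding.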 The conditions noted are these: mean of both orientations.

Assay [5] addresses T5, P3.
T5 chain: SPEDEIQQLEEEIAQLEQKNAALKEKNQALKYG
Description: two-hybrid library CC1.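 Also: natural log of median RNA to DNA barcode read ratio; higher means stronger binding.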 The note with it: mean of both orientations.

Assay [6] has as its target T6, P3mS.
T6 chain: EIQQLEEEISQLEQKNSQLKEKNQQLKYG
Kind of assay: two-hybrid library CC1.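 Also: natural log of median RNA to DNA barcode read ratio; higher means stronger binding.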 The conditions noted are these: mean of both orientations.

For assay [7], the target named is T7, P4.
T7 chain: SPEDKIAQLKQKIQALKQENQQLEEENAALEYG
Description: two-hybrid library CC1. The note with it: mean of both orientations.

Assay [8] addresses T8, P4mS.
T8 chain: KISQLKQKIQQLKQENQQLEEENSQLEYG
Kind of assay: two-hybrid library CC1. The note with it: mean of both orientations.

For assay [9], the target named is T9, P5SC1.
T9 chain: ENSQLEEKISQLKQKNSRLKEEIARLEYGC
Kind of assay: two-hybrid library CC1. The conditions noted are these: mean of both orientations.

For assay [10], the target named is T10, P5SC2.
T10 chain: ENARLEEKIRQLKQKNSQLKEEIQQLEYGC
Kind of assay: two-hybrid library CC1. The conditions noted are these: mean of both orientations.

The target in assay [11] is T11, P5.
T11 chain: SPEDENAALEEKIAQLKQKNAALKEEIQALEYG
Kind of assay: two-hybrid library CC1. The note with it: mean of both orientations.

Assay [12] deals with T12, P5mS.
T12 chain: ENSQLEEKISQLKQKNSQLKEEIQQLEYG
Description: two-hybrid library CC1. The note with it: mean of both orientations.

The target in assay [13] is T13, P6SC1.
T13 chain: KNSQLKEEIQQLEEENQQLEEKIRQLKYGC
Description: two-hybrid library CC1. The note with it: mean of both orientations.

For assay [14], the target named is T14, P6SC2.
T14 chain: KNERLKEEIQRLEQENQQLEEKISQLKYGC
Description: two-hybrid library CC1. The conditions noted are these: mean of both orientations.

The target of assay [15] is T15, P6.
T15 chain: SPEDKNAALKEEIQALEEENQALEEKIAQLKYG
Description: two-hybrid library CC1. The conditions noted are these: mean of both orientations.

For assay [16], the target named is T16, P6mS.
T16 chain: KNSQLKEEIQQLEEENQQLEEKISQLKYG
Description: two-hybrid library CC1. The conditions noted are these: mean of both orientations.

Assay [17] has as its target T17, P7.
T17 chain: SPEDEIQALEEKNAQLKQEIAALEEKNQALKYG
Description: two-hybrid library CC1. The note with it: mean of both orientations.

In assay [18] the target is T18, P7mS.
T18 chain: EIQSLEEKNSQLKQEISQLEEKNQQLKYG
Kind of assay: two-hybrid library CC1. The conditions noted are these: mean of both orientations.

For assay [19], the target named is T19, P8.
T19 chain: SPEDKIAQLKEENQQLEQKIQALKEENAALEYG
Description: two-hybrid library CC1. The conditions noted are these: mean of both orientations.

The target of assay [20] is T20, P8mS.
T20 chain: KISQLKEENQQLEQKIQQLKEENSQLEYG
Description: two-hybrid library CC1. The conditions noted are these: mean of both orientations.

In assay [21] the target is T21, P9.
T21 chain: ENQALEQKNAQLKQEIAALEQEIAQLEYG
Description: two-hybrid library CC1. The conditions noted are these: mean of both orientations.

B1: Core_IIII-es_EEKK (peptide)
chain: DEIAALEAEIAALEAKIAALKAKIAALKG
For the molecule B1, the interaction score in assay [1] was determined as 1.78.

B2: P10 (peptide)
chain: KNAQLKEENAALEEKIQQLKEKIQALKYG
In the case of B2, the interaction score was -2.46 in assay [2]; -0.938 in assay [3]; -2.49 in assay [4]; -1.63 in assay [5]; -2.74 in assay [6]; -2.91 in assay [7]. Further, the interaction score is -2.94 in assay [8]; -2.65 in assay [9]; -2.77 in assay [10]; -2.96 in assay [11]; -2.88 in [12]; -2.61 in [13]. The interaction score in [14] was -2.28; in assay [15], -1.77; in assay [16], -2.78; in assay [17], -0.907; in assay [18], -2.22; in [19] it was -2.83. Also, the interaction score in [20] was -2.75; in assay [21], 0.493.
